{"source": "paper PMC3136172", "about": "“Stabilization of a G-Quadruplex from Unfolding by Replication Protein A Using Potassium and the Porphyrin TMPyP4”", "key": {"[1]": {"target": "RPA (full-length replication protein A) (human, UniProt P27694;P15927;P35244 1-616;1-270;1-121)", "sequence (P27694 whole entry, chain 1 of 3)": "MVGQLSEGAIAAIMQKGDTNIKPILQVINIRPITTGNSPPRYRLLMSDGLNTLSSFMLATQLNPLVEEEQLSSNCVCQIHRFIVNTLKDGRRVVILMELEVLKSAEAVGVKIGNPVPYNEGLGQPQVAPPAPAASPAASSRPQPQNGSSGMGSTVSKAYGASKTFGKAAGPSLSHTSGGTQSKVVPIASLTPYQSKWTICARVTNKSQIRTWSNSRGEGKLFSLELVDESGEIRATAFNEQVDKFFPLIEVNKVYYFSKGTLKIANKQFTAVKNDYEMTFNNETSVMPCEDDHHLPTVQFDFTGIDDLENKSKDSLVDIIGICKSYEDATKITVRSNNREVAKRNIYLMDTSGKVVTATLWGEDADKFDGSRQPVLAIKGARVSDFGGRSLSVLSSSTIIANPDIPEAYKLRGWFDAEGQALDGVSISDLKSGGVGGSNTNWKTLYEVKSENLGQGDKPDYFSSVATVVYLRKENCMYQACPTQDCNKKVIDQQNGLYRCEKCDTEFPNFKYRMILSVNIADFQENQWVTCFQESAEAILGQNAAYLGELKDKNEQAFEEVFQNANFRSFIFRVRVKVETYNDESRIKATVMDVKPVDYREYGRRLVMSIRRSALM", "sequence (P15927 whole entry, chain 2 of 3)": "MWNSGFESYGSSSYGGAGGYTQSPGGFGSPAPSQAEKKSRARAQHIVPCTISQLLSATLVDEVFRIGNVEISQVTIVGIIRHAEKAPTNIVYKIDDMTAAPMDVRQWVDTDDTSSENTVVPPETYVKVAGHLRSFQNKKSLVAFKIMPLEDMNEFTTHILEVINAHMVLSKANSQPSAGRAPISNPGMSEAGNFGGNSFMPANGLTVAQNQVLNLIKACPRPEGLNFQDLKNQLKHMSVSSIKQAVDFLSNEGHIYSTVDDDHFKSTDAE", "sequence (P35244 whole entry, chain 3 of 3)": "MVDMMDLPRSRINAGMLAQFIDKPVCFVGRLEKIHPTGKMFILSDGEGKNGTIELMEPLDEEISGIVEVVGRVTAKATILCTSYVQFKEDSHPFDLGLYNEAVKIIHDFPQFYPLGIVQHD", "assay": "CD titration (G4 unfolding); 100 mM NaCl, 2 mM Mg2+; complete unfolding at RPA:DNA ratio 2; 25 mM Tris pH 7.5, 2 mM MgCl2, 0.5% inositol, 1 mM DTT, 100 mM NaCl or 100 mM KCl, 25 C; 1.4 uM DNA, protein:DNA ratio 0-5", "details": "protein: recombinant; copies: 1;1;1; intramolecular G4; mixed parallel/antiparallel in K+, antiparallel in Na+"}, "RPA-CDE-core": {"target": "RPA-CDE-core (UniProt P27694;P15927;P35244 436-616;45-171;1-121)", "sequence (P27694 436-616, chain 1 of 3)": "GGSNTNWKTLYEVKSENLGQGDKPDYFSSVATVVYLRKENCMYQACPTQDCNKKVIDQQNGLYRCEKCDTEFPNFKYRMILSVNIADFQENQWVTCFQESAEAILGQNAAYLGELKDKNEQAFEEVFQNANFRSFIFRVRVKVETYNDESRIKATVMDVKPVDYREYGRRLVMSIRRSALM", "sequence (P15927 45-171, chain 2 of 3)": "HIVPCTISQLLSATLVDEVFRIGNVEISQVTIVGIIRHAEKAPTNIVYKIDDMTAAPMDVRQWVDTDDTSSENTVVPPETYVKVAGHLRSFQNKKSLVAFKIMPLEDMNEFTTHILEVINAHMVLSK", "sequence (P35244 whole entry, chain 3 of 3)": "as the sequence (P35244 whole entry, chain 3 of 3) above", "assay": "CD titration (G4 unfolding); 100 mM NaCl, 2 mM Mg2+; efficient unfolding, less than RPA; 25 mM Tris pH 7.5, 2 mM MgCl2, 0.5% inositol, 1 mM DTT, 100 mM NaCl or 100 mM KCl, 25 C; 1.4 uM DNA, protein:DNA ratio 0-5", "details": "protein: recombinant; tags: N-terminal His-tag, thrombin-cleaved; copies: 1;1;1; intramolecular G4; mixed parallel/antiparallel in K+, antiparallel in Na+"}}, "data": [{"binder": "TAGGGGAAGGGTTGGAGTGGGTT (structured_DNA)", "note": "[Gq23]", "values": [{"measurement": "binding result", "setting": "[1]", "result": "binds"}, {"measurement": "binding result", "setting": "RPA-CDE-core", "result": "binds"}]}]}
